Results as given in paper PMC9563463, “PARP1-MGMT complex underpins pathway crosstalk in O^6-methylguanine repair” (Journal of Hematology & Oncology, 2022).

Biological target: T1, full-length PARP1, purified recombinant (UniProt P09874 1-1014)
T1 construct: PARP1, full length; also called purified PARP1; source: purified recombinant
Assay: MST; Monolith NT.115, 17% LED power, medium MST power, MST-on time of 10 s; full-length proteins
Conditions: both partners purified

T1 sequence (P09874 whole entry): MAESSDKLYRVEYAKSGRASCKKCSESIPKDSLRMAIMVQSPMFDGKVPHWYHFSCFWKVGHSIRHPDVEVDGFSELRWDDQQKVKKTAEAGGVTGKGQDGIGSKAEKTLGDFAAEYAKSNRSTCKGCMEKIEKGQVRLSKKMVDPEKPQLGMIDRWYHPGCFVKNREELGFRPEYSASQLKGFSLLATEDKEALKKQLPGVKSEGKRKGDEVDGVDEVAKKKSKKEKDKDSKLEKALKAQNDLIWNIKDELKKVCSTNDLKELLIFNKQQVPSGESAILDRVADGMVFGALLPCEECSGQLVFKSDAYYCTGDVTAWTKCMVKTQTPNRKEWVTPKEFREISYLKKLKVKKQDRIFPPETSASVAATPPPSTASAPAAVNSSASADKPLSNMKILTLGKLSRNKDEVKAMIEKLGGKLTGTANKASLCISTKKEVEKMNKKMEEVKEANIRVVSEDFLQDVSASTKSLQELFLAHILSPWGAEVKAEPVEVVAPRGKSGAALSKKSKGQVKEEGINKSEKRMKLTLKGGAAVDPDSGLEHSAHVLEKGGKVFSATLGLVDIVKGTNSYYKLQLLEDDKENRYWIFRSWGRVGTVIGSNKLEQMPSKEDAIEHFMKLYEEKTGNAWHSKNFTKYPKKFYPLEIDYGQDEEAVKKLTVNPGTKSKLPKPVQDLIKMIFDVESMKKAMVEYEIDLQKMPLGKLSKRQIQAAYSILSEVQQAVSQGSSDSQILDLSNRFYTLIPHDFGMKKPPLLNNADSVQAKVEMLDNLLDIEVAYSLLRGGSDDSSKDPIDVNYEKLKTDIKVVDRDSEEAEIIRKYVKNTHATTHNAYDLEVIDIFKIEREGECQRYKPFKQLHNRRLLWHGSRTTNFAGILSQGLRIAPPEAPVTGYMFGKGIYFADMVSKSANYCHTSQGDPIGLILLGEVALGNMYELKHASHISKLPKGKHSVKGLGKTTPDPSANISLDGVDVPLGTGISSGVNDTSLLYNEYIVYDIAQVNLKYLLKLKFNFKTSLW

B1: full-length MGMT, purified recombinant (natural protein, UniProt P16455 1-207, looked up)
chain: MDKDCEMKRTTLDSPLGKLELSGCEQGLHEIKLLGKGTSAADAVEVPAPAAVLGGPEPLMQCTAWLNAYFHQPEAIEEFPVPALHHPVFQQESFTRQVLWKLLKVVKFGEVISYQQLAALAGNPKAARAVGGAMRGNPVPILIPCHRVVCSSGAVGNYSGGLAVKEWLLAHEGHRLGKPGLGGSSGLAGAWLKGAGATSGSPPAGRN
notes: MGMT, full length; also called purified MGMT; source: purified recombinant
Kd: 165 nM
